Positions count from the first letter of the chain named.
Experiments:
[1] = biological target: T1, human MCAM (antigen of the BLI kinetics in Example 7) (human, UniProt P43121 24-559, limits assumed); assay: BLI, ForteBio Octet QK, apparent kd
T1 chain: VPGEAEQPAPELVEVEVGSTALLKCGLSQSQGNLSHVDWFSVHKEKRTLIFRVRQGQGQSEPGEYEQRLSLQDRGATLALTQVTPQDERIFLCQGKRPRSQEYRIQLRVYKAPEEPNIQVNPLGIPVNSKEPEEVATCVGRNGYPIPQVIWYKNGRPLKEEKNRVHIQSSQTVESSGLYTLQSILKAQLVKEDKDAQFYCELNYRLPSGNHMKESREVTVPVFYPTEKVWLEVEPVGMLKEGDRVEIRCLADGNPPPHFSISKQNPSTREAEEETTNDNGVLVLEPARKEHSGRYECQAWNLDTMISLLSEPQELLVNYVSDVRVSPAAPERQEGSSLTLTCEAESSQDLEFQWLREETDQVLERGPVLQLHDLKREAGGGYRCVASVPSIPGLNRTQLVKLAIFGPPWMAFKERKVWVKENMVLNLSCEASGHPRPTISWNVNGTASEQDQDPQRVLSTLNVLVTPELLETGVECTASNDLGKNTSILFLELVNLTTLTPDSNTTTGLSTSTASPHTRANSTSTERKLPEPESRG
Description: Apparent ka, apparent kd and apparent KD are binding kinetic parameters obtained using ForteBio assay formats.

[2] = biological target: T2, human MCAM C320A mutant (shotgun mutagenesis library, on BHK cells) (human, UniProt P43121 24-646); assay: shotgun mutagenesis library, immunofluorescence on BHK cells, triplicate, background-subtracted and normalized to WT
T2 chain: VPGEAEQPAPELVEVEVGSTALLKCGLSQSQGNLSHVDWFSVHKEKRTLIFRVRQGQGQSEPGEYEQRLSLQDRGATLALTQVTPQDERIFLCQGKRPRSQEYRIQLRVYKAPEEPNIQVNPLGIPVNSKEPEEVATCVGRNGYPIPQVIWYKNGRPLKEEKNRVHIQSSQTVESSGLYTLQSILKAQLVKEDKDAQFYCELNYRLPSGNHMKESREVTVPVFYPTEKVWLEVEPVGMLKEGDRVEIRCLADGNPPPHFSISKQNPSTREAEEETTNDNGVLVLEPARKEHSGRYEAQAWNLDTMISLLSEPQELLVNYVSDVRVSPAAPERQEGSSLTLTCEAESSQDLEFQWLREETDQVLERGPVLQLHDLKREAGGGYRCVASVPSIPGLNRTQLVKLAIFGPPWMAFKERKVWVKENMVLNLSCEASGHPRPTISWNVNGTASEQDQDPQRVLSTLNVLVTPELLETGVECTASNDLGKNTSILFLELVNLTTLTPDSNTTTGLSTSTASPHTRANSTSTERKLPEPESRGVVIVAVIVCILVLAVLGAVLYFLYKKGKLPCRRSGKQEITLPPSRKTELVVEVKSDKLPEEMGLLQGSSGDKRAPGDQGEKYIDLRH
Protocol: (§1) The mutation library was assayed for surface expression (mouse sera binding) and monoclonal antibody binding, in triplicate. Each raw data point was background-subtracted and normalized to the wild type MCAM reactivity values. The mean monoclonal antibody binding value for each clone is plotted as a function of its mean surface expression value (FIG. 1, gray diamonds). Thresholds of <30% monoclonal antibody reactivity and >50% mouse sera binding were applied to identify clones (FIG. 1, black diamonds) that were negative for monoclonal antibody binding but positive for surface expression.
(§2) Residues involved in antibody binding were identified as those that were negative for monoclonal antibody binding (<30% WT) but positive for surface expression (>50% WT) (Table 4). The mean reactivity (and standard deviation) were determined for each critical residue.

[3] = biological target: T3, human MCAM C272A mutant (shotgun mutagenesis library, on BHK cells) (human, UniProt P43121 24-646); assay: as above
T3 chain: T2 chain with C249A, A297C
Protocol: as §1, §2

[4] = biological target: T4, human MCAM V340A mutant (shotgun mutagenesis library, on BHK cells) (human, UniProt P43121 24-646); assay: as above
T4 chain: T2 chain with A297C, V317A
Protocol: as §1, §2

B1: mouse anti-human MCAM monoclonal antibody clone 1749.1.3 (antibody, V domains shown)
VH: DVKLVESGGDLVKPGGSLKLSCAASGFTFSSYIMSWVRQTPEKRLEWVATISSGGSSTYYPDSVKGRFTISRDNAKNTLYLQMSSLKSEDTAMYYCTRDDDYDVKVFAYWGQGTLVTVSA
VL: DIVMSQSPSSLAVSAGEKVTMNCKSSRSLLNSRIRKNYLAWYQQKPGQSPKLLIYWASTRESGVPDRFTGSGSGTDFTLTISSVQAEDLAVYYCKQSYNLLTFGAGTKLELK
notes: Mouse hybridoma monoclonal antibody; also called m1749
koff [1]: 0.000402 s⁻¹ | mean reactivity (% of wild type MCAM), standard deviation in brackets [2]: 9.3 % of WT | mean reactivity (% of wild type MCAM), standard deviation in brackets [3]: 7.6 % of WT | mean reactivity (% of wild type MCAM), standard deviation in brackets [4]: 8.7 % of WT
